Here are results for 9 molecules from publication PMC13323110, “Structure and substrate recognition by the bacterial twin-arginine translocation (Tat) core complex” (Nature Microbiology, 2026).

For series [1], the target named is N. salsuginis TatC (GFP-His removed) (Nitratifractor salsuginis). Description: cryo-EM structure; co-expressed TatBC complexes (E. coli, N. salsuginis, M. xanthus) and N. salsuginis TatAC complex, solubilised and purified in GDN.
Series [2] concerns the molecule itself. Description: cryo-EM structure; complex assembled in vitro: Ulp1-cut His6-SUMO-MdoD or -CueO mixed with purified E. coli TatBC or TatABC complex overnight at 4 °C, SEC in 50 mM Tris pH 8.0, 200 mM NaCl, 1 mM EDTA, 0.02% GDN; excess substrate.
Series [3] concerns the target T1, E. coli TatBC complex purified by a Twin-Strep tag on TatC (sample of the TatBC-MdoD structure) (Escherichia coli, UniProt P69425 1-171; P69423 1-258).
T1 construct: TatB of Escherichia coli, as m1; TatC of Escherichia coli, as m5; No TatA density was found; source: E. coli, overexpressed TatABC purified solely by the TatC Twin-Strep tag in GDN; only very low levels of TatA in the purified material; copies: 3 + 3
T1 sequence 1: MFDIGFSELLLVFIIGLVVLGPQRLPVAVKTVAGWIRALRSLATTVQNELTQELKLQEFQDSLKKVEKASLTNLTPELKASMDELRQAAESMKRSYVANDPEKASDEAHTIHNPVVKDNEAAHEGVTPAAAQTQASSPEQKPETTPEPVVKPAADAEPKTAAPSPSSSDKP
T1 sequence 2: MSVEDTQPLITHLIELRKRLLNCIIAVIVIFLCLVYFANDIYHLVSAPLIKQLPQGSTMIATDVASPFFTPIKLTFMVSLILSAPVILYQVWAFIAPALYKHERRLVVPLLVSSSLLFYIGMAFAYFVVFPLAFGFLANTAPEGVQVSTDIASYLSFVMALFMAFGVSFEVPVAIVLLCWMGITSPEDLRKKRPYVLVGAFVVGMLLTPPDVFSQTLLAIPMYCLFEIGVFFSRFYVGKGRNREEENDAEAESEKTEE
The series is described as above. As to conditions: both partners purified.

For series [4], the target named is T2, E. coli TatC with C-terminal Twin-Strep tag, expressed from a tatABC plasmid (Escherichia coli, UniProt P69423 1-258).
T2 construct: TatC of Escherichia coli, PCR from E. coli genomic DNA (DSM 1116); also called TatC_(strep); not shown: Twin-Strep, C-terminal, kept
T2 sequence: T1 sequence 2
Nature of the series: cryo-EM structure; purified E. coli TatABC with an ALFA tag inserted in TatA or TatB, labelled with an anti-ALFA nanobody; 2D class averages and a 6.4 Å map. To be noted: both partners purified.

The target of series [5] is T3, E. coli TatC of the His-tagged TatBC complex (TatBC_(His)6) (Escherichia coli), P69423.
T3 chain: T1 sequence 2
Description: cryo-EM structure; co-expressed TatBC complexes (E. coli, N. salsuginis, M. xanthus) and N. salsuginis TatAC complex, solubilised and purified in GDN. As to conditions: remark: other sources report otherwise.

For series [6], the target named is N. salsuginis TatBC complex (Nitratifractor salsuginis). Description: cryo-EM structure; 50 μl N. salsuginis TatBC (A280nm = 8.0) mixed with 50 μl CueO peptide (1 mg/ml), 12 h at 4 °C, in GDN.
The target in series [7] is T2, E. coli TatC with C-terminal Twin-Strep …. Nature of the series: densitometry of Coomassie-stained SDS-PAGE of purified complexes; purified TatABC (TatA_26(His)6_TatBC) and TatBC (TatBC_(His)6) at four dilutions, bands quantified with ImageJ. As to conditions: both partners purified.
Series [8] concerns the molecule itself. Description: cryo-EM structure; co-expressed TatBC complexes (E. coli, N. salsuginis, M. xanthus) and N. salsuginis TatAC complex, solubilised and purified in GDN.
Series [9] deals with the molecule itself. Nature of the series: crystal structure; SeMet-labelled isolated periplasmic domain; sitting drop, 21 °C, 0.2 M lithium sulphate, 0.1 M Tris pH 8.5, 10% PEG 8000, 10% PEG 1000.

As for “N. salsuginis TatC (GFP-His removed) (natural protein)”, in series [1], the stoichiometry N was 3.

B1: E. coli MdoD, full length with its Tat signal peptide (natural protein, Escherichia coli, UniProt P40120 1-551, looked up)
chain: MDRRRFIKGSMAMAAVCGTSGIASLFSQAAFAADSDIADGQTQRFDFSILQSMAHDLAQTAWRGAPRPLPDTLATMTPQAYNSIQYDAEKSLWHNVENRQLDAQFFHMGMGFRRRVRMFSVDPATHLAREIHFRPELFKYNDAGVDTKQLEGQSDLGFAGFRVFKAPELARRDVVSFLGASYFRAVDDTYQYGLSARGLAIDTYTDSKEEFPDFTAFWFDTVKPGATTFTVYALLDSASITGAYKFTIHCEKSQVIMDVENHLYARKDIKQLGIAPMTSMFSCGTNERRMCDTIHPQIHDSDRLSMWRGNGEWICRPLNNPQKLQFNAYTDNNPKGFGLLQLDRDFSHYQDIMGWYNKRPSLWVEPRNKWGKGTIGLMEIPTTGETLDNIVCFWQPEKAVKAGDEFAFQYRLYWSAQPPVHCPLARVMATRTGMGGFSEGWAPGEHYPEKWARRFAVDFVGGDLKAAAPKGIEPVITLSSGEAKQIEILYIEPIDGYRIQFDWYPTSDSTDPVDMRMYLRCQGDAISETWLYQYFPPAPDKRQYVDDRVMS
notes: MdoD of Escherichia coli, precursor with its 32-residue Tat signal peptide; source: E. coli BL21 (DE3) ΔtatABCD ΔtatE, pET28a with N-terminal His6-SUMO, purified (His tag column), cut with Ulp1; not shown: His6, N-terminal, cleaved; SUMO, N-terminal, cleaved
Turning to B1, the “stoichiometry N” value is 2 in series [2] and 3 MdoD per (TatBC)3 complex in series [3].

B2: E. coli TatA with an inserted ALFA-His tag (natural protein, Escherichia coli, UniProt P69428 1-89, looked up)
chain: MGGISIWQLLIIAVIVVLLFGTKKLGSIGSDLGASIKGFKKAMSDDEPKQDKTSQDADFTAKTIADKQADTNQEQAKTEDAKRHDKEQV
notes: TatA of Escherichia coli; also called TatA_(ALFA); TatA_(ALFA,His); not shown: ALFA, internal (in the cytoplasmic part of TatA), kept
Take B2: the “stoichiometry N” value in series [4] is 1 TatA per core complex.

B3: E. coli TatC of the His-tagged TatBC complex (TatBC_(His)6), P69423 1-258 (natural protein)
chain: T1 sequence 2
On to B3, for which the stoichiometry N in [5] was 3.

B4: E. coli CueO signal peptide (residues 1-28) (peptide)
peptide: MQRRDFLKYSVALGVASALPLWSRAVFA
B4: in [6], the stoichiometry N (signal peptide per TatB and TatC) is 1.

B5: E. coli TatB (natural protein, Escherichia coli)
chain: T1 sequence 1
notes: TatB of Escherichia coli, PCR from E. coli genomic DNA (DSM 1116); residues 1-63 modelled in the TatBC structure; source: E. coli MC4100 ΔtatABCD ΔtatE, overexpressed from a plasmid with TatC (and TatA), purified in GDN as part of the complex
For the molecule B5, the “ratio of TatB to TatC in the TatABC complex relative to the TatBC complex” value in [7] came out at 0.78. The binding result in series [8] was “binds”.

B6: E. coli TatB with an inserted ALFA-His tag (natural protein, Escherichia coli, UniProt P69425 1-171, looked up)
chain: T1 sequence 1
notes: TatB of Escherichia coli; also called TatB_(ALFA)
As for B6, the “stoichiometry N” value in series [4] was 2 TatB per core complex.

B7: M. xanthus TatC periplasmic domain (residues 127-303) (domain or fragment, Myxococcus xanthus, UniProt Q2PHA2 127-303, looked up)
chain: SMFTFLLNEEETLALEQRLDTARLRADDALRFLRLGEAEEAGRIAKETSTQLRAEGQGQAPAPEVAPAASVEMTGRLDGLGRLLDAASVGYGAQSRGVLRQAVEKRVEAVTAYEKKDFAAAAAAMDGSASLLAGIAPTRTEELAGLWRLEKELATAHAAHEAARWTRPMLSMHEQLS
modifications: selenomethionine-labelled
notes: periplasmic domain of TatC of Myxococcus xanthus, residues 127-303; also called M. xanthus insert; source: E. coli B834 (DE3), pET15b, SelenoMethionine media, purified (Ni-NTA, TEV, SEC)
Turning to B7, in [9], the “stoichiometry N” value worked out at 3.

B8: M. xanthus TatC (GFP-His removed) (natural protein, Myxococcus xanthus)
chain: MSLADHLTELRSRLMRCTIAVLILGTISLVFAKPIFGLLMQPVLDALPPENRSLIYTSGIEELNVLMKVGVYCGIFLTTPVILMQIWGFVSPGLYPEERRFAAPFVAFGSIAFLLGAAFCYFAVLPSMFTFLLNEEETLALEQRLDTARLRADDALRFLRLGEAEEAGRIAKETSTQLRAEGQGQAPAPEVAPAASVEMTGRLDGLGRLLDAASVGYGAQSRGVLRQAVEKRVEAVTAYEKKDFAAAAAAMDGSASLLAGIAPTRTEELAGLWRLEKELATAHAAHEAARWTRPMLSMHEQLSLVLLLILAFGIIFELPLVMALLGVVGVVKSSWLFRYQRHAFVVCLIAAAIITPTGDVVNLSLMAGPMLLCYELGVLLVWMVERRRARNSAETGITPAS
notes: TatC of Myxococcus xanthus (ATCC 19368), codon-optimised synthetic gene; has a folded periplasmic insert domain
For B8, the “stoichiometry N” value in series [8] is 3.

As a reminder, the stoichiometry N is a count of units in the complex or per binding partner.
